# Experimental data published in patent US20260217779.
# Numbering of substitutions follows the chain as printed.
# B1: human dipeptidyl peptidase IV (human DPPIV, hDPPIV) (Biolegend, 764102) (protein)
# chain: NKGTDDATADSRKTYTLTDYLKNTYRLKLYSLRWISDHEYLYKQENNILVFNAEYGNSSVFLENSTFDEFGHSINDYSISPDGQFILLEYNYVKQWRHSYTASYDIYDLNKRQLITEERIPNNTQWVTWSPVGHKLAYVWNNDIYVKIEPNLPSYRITWTGKEDIIYNGITDWVYEEEVFSAYSALWWSPNGTFLAYAQFNDTEVPLIEYSFYSDESLQYPKTVRVPYPKAGAVNPTVKFFVVNTDSLSSVTNATSIQITAPASMLIGDHYLCDVTWATQERISLQWLRRIQNYSVMDICDYDESSGRWNCLVARQHIEMSTTGWVGRFRPSEPHFTLDGNSFYKIISNEEGYRHICYFQIDKKDCTFITKGTWEVIGIEALTSDYLYYISNEYKGMPGGRNLYKIQLSDYTKVTCLSCELNPERCQYYSVSFSKEAKYYQLRCSGPGLPLYTLHSSVNDKGLRVLEDNSALDKMLQNVQMPSKKLDFIILNETKFWYQMILPPHFDKSKKYPLLLDVYAGPCSQKADTVFRLNWATYLASTENIIVASFDGRGSGYQGDKIMHAINRRLGTFEVEDQIEAARQFSKMGFVDNKRIAIWGWSYGGYVTSMVLGSGSGVFKCGIAVAPVSRWEYYDSVYTERYMGLPTPEDNLDHYRNSTVMSRAENFKQVEYLLIHGTADDNVHFQQSAQISKALVDVGVDFQAMWYTDEDHGIASSTAHQHIYTHMSHFIKQCFSLP
# What was measured:
# [1] = target: T1, hITIP0035-G1T4k.one//VHn-G1T4h.one.H435R
# T1 chain 1: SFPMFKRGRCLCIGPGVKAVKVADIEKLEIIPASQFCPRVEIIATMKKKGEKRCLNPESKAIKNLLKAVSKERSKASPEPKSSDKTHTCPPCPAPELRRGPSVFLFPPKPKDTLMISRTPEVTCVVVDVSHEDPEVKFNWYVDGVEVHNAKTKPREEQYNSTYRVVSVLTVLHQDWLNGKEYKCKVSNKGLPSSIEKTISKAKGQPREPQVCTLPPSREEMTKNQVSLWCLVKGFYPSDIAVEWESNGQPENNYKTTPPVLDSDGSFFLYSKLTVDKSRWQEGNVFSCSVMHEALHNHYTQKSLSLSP
# T1 chain 2: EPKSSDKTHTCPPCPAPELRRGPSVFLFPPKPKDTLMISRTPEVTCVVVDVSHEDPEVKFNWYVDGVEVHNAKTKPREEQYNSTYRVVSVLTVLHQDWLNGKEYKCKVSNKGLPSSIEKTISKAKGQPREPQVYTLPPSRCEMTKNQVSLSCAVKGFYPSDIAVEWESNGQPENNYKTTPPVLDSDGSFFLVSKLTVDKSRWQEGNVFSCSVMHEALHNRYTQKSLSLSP
# [2] = target: T2, hCXCL11.0035-G1T4k.one//VHn-G1T4h.one.H435R
# T2 chain 1: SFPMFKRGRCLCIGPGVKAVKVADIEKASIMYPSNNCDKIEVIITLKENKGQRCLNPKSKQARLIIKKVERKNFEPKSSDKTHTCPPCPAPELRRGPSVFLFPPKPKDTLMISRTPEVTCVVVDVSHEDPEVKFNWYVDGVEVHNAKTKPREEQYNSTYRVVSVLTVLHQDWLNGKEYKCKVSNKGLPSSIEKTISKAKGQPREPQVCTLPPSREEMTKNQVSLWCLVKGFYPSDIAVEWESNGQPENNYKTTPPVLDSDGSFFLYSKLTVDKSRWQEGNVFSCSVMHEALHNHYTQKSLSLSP
# T2 chain 2: T1 chain 2
# [3] = target: T3, hCXCL11.0023-G1T4k.one//VHn-G1T4h.one.H435R
# T3 chain 1: T2 chain 1 with S1E
# T3 chain 2: T1 chain 2
# [4] = target: T4, hCXCL11.0036-G1T4k.one//VHn-G1T4h.one.H435R
# T4 chain 1: T2 chain 1 with S1T
# T4 chain 2: T1 chain 2
# [5] = target: T5, hITIP0036-G1T4k.one//VHn-G1T4h.one.H435R
# T5 chain 1: T1 chain 1 with S1T
# T5 chain 2: T1 chain 2
# [6] = target: T6, hCXCL11.0033-G1T4k.one//VHn-G1T4h.one.H435R
# T6 chain 1: T2 chain 1 with S1Q
# T6 chain 2: T1 chain 2
# [7] = target: T7, hITIP0030-G1T4k.one//VHn-G1T4h.one.H435R
# T7 chain 1: T1 chain 1 with S1M
# T7 chain 2: T1 chain 2
# [8] = target: T8, hITIP0025-G1T4k.one//VHn-G1T4h.one.H435R
# T8 chain 1: T1 chain 1 with S1G
# T8 chain 2: T1 chain 2
protein,measurement,setting,value
B1,cleavage by hDPPIV (LC/MS mass),[1],showed no mass change suggestive of peptide bond cleavage by hDPPIV treatment
same,cleavage by hDPPIV (LC/MS mass),[2],showed no mass change suggestive of peptide bond cleavage by hDPPIV treatment
same,cleavage by hDPPIV (LC/MS mass),[3],showed no mass change suggestive of peptide bond cleavage by hDPPIV treatment
same,cleavage by hDPPIV (LC/MS mass),[4],showed no mass change suggestive of peptide bond cleavage by hDPPIV treatment
same,cleavage by hDPPIV (LC/MS mass),[5],showed no mass change suggestive of peptide bond cleavage by hDPPIV treatment
same,cleavage by hDPPIV (LC/MS mass),[6],showed no mass change suggestive of peptide bond cleavage by hDPPIV treatment
same,cleavage by hDPPIV (LC/MS mass),[7],showed no mass change suggestive of peptide bond cleavage by hDPPIV treatment
same,cleavage by hDPPIV (LC/MS mass),[8],showed no mass change suggestive of peptide bond cleavage by hDPPIV treatment
